This assay concerns the target γ-H2AX peptide standard (synthetic peptide …, serine at position 27 phosphorylated). The experiment in a line: sandwich chemiluminescent ELISA: plate-coated JBW301 captures the γ-H2AX peptide standard; detected with rabbit polyclonal anti-H2AX (Abcam) and goat anti-rabbit HRP. For orientation: ELISA stands for enzyme-linked immunosorbent assay.

Sequence of γ-H2AX peptide standard (synthetic peptide …, serine at position 27 phosphorylated) (peptide, as listed by the source): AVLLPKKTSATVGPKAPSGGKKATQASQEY

Regarding “Anti-γ-H2AX (Ser139) mouse monoclonal antibody, clone JBW301 (Millipore)”, the Average RLU (n = 3) at 5 pM γH2AX standard was 993000 RLU, the Average RLU (n = 3) at 10 pM γH2AX standard turned out to be 2.02e+06 RLU, the Average RLU (n = 3) at 20 pM γH2AX standard is 4.6e+06 RLU and the Average RLU (n = 3) at 40 pM γH2AX standard amounted to 1e+07 RLU. The substance further had an Average RLU (n = 3) at 80 pM γH2AX standard of 2.08e+07 RLU, an Average RLU (n = 3) at 160 pM γH2AX standard of 3.74e+07 RLU, an Average RLU (n = 3) at 320 pM γH2AX standard of 5.88e+07 RLU and an Average RLU (n = 3) at 640 pM γH2AX standard of 7.92e+07 RLU.

The record behind these values is US20180003720A1.
